Test results taken from patent US5879917.
pKd: −log10 of the molar value.

Tested on: hUBF (RNA polymerase I transcription factor UBF), HeLa (Homo sapiens)
Test: footprint
Settings: 14 mM MgCl2, 50 mM KCl, pH 7.9, 30 C

Row | Substance | pKd (single cis-[Pt(NH3)2]2+ d(GpG) 1,2-intrastrand adduct, central, non-cooperative) | pKd (apparent Kd (half-maximal), cooperative, Hill 2.7)
1 | G^G-100 (100 bp with single central cisplatin 1,2-d(GpG) intrastrand crosslink) | 10.22 | –
2 | human rRNA promoter -208 to +78 (EcoRI-BstEII fragment of pSBr208, 286 bp) | – | 10.74
